Here are results for two molecules from US20260116980A1.

Assay [1] concerns the target B7H3 on H358 tumor cells (UniProt Q5ZPR3). Nature of the assay: FACS on H358 cells, 1 h on ice, fluorescence-labelled anti-human Fc.
Assay [2] shares this target. In words: flow cytometry on H358 cells, His-tag antibody iFluor 488 detection, four parameter logistic model. For orientation: A flow cytometer gives signals particle by particle.
The target is the same in assay [3]. Nature of the assay: flow cytometry on H358 cells, His-tag antibody iFluor 488 detection; MFImax of the four parameter fit.

Chain of B7H3 on H358 tumor cells (Q5ZPR3 29-534): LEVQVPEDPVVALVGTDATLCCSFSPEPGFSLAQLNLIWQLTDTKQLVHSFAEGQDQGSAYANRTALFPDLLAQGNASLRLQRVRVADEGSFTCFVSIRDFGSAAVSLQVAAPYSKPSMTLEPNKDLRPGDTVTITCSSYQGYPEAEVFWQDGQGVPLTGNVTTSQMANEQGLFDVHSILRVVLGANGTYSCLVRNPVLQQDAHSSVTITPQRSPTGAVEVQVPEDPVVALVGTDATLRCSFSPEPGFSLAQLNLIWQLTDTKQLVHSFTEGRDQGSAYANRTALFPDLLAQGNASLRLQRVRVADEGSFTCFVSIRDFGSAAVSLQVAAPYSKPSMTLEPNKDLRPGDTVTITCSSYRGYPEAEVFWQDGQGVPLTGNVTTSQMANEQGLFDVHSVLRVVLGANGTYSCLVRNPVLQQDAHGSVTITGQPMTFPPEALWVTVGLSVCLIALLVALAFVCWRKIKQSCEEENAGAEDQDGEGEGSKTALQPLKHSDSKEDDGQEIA

B1: BGA-6938 in wildtype IgG1/kappa format (antibody, V domains shown)
VH: QVQLQESGPGLVKPSGTLSLTCAVSGGSISTSNYWNWVRQSPGKGLEWIGEIYPTGNTNYSPSLKSRVTISIDKSKNQFSLKLNSVTAADTAVYYCARGYNWFDPWGQGTLVTVSS
VL: EIVLTQSPGTLSLSPGERATLSCRTSQSINAILLAWYQQKPGQAPRLLIYGASSRATGIPDRFSGSGSGTDFTLSISRLEPEDFAVYYCQQYGSSPRTFGQGTKVEIKR
Regarding B1, the EC50 (read off the curve) (in general, the concentration at which the effect is half-maximal) in assay [1] came to 0.5 nM.

B2: scFv of BGA-6938 VL-VH (scFv)
scFv: EIVLTQSPGTLSLSPGERATLSCRTSQSINAILLAWYQQKPGQAPRLLIYGASSRATGIPDRFSGSGSGTDFTLSISRLEPEDFAVYYCQQYGSSPRTFGQGTKVEIKGGGGSGGGGSGGGGSGGGGSQVQLQESGPGLVKPSGTLSLTCAVSGGSISTSNYWNWVRQSPGKGLEWIGEIYPTGNTNYSPSLKSRVTISIDKSKNQFSLKLNSVTAADTAVYYCARGYNWFDPWGQGTLVTVSSHHHHHH
Turning to B2, the EC50 (as a rule, the concentration at which the effect is half-maximal) in assay [2] is 2.05 nM. The MFI in assay [3] worked out at 782000.
